From patent US20240209065A1 come the findings set out here.

Like-named read-outs stand apart in the source and are kept apart here.

The target of test [1] is SARS-CoV-2 Omicron BA.4/5 RBD, aa 319-541, C-terminal 6xHis-tag (SARS-CoV-2) (UniProt P0DTC2).
Test [2] deals with SARS-CoV-2 Omicron BA.2 RBD, aa 319-541, C-terminal 6xHis-tag (SARS-CoV-2) (UniProt P0DTC2).
The target is the same in test [3]. The test is described as follows: ELISA, plates coated with RBD.
The target of test [4] is S protein of authentic SARS-CoV-2 Omicron BA.1 virus (SARS-CoV-2) (UniProt P0DTC2). Put plainly: cell-based or functional assay.
Test [5] deals with S protein of authentic SARS-CoV-2 Omicron BA.5 virus (SARS-CoV-2) (UniProt P0DTC2). Put plainly: cell-based or functional assay.

Take DXP-604 IgG (antibody): the EC50 in test [1] was found to be 1.6 nM; in test [2], 9.48 nM; in test [3] it was 9.48 nM. Also, the IC50, microneutralization assay with authentic virus in test [4] stood at 22.9 nM; in test [5], 12.4 nM.

Usually EC50 stands for the concentration needed to bring the measured effect to its halfway point. A high value points to a need for much substance.
